In paper PMC8564726 (2021):
One block for each binder: values may come before it.

Legend:
[1] = target: T1, H3K9me0 peptide (Homo sapiens, unmethylated K9; fluorescein label; H3(1-20) in mature numbering (initiator Met removed)); test: FP; MBP-tagged full-length G9a; lower limit, no saturation
[2] = target: H3K9me1 monomethylated mononucleosome (methyl-lysine analog), 147 bp 601 DNA 5'-fluorescein-labeled (monomethyl-lysine analog (MLA) at K9); test: FP
[3] = target: H3K9me2 dimethylated mononucleosome (methyl-lysine analog), 147 bp 601 DNA 5'-fluorescein-labeled (dimethyl-lysine analog (MLA) at K9); test: FP
[4] = target: T1, H3K9me0 peptide; test: FP; lower limit, no saturation
[5] = target: unmethylated mononucleosome (H3K9me0), 147 bp 601 DNA 5'-fluorescein-labeled; test: FP

B1: full-length G9a (enzyme)
chain: MRGLPRGRGLMRARGRGRAAPTGGRGRGRGGAHRGRGRPRSLLSLPRAQASWAPQLPAGLTGPPVPCLPSQGEAPAEMGALLLEKEPRGAAERVHSSLGDTPQSEETLPKANPDSLEPAGPSSPASVTVTVGDEGADTPVGAASLIGDEPESLEGDGGRIVLGHATKSFPSSPSKGGACPSRAKMSMTGAGKSPPSVQSLAMRLLSMPGAQGAATAGPEPSPATTAAQEGQPKVHRARKTMSKPSNGQPPIPEKRPPEVQHFRMSDDMHLGKVTSDVAKRRKLNSGSLSEDLGSAGGSGDIILEKGEPRPLEEWETVVGDDFSLYYDAYSVDERVDSDSKSEVEALAEQLSEEEEEEEEEEEEEEEEEEEEEEEEEDEESGNQSDRSGSSGRRKAKKKWRKDSPWVKPSRKRRKREPPRAKEPRGVNGVGSSGPSEYMEVPLGSLELPSEGTLSPNHAGVSNDTSSLETERGFEELPLCSCRMEAPKIDRISERAGHKCMATESVDGELLGCNAAILKRETMRPSSRVALMVLCEAHRARMVKHHCCPGCGYFCTAGTFLECHPDFRVAHRFHKACVSQLNGMVFCPHCGEDASEAQEVTIPRGDGGTPPIGTAAPALPPLAHDAPGRADTSQPSARMRGHGEPRRPPCDPLADTIDSSGPSLTLPNGGCLSAVGLPPGPGREALEKALVIQESERRKKLRFHPRQLYLSVKQGELQKVILMLLDNLDPNFQSDQQSKRTPLHAAAQKGSVEICHVLLQAGANINAVDKQQRTPLMEAVVNNHLEVARYMVQLGGCVYSKEEDGSTCLHHAAKIGNLEMVSLLLSTGQVDVNAQDSGGWTPIIWAAEHKHIDVIRMLLTRGADVTLTDNEENICLHWASFTGSAAIAEVLLNAQCDLHAVNYHGDTPLHIAARESYHDCVLLFLSRGANPELRNKEGDTAWDLTPERSDVWFALQLNRKLRLGVGNRAVRTEKIICRDVARGYENVPIPCVNGVDGEPCPEDYKYISENCETSTMNIDRNITHLQHCTCVDDCSSSNCLCGQLSIRCWYDKDGRLLQEFNKIEPPLIFECNQACSCWRSCKNRVVQSGIKVRLQLYRTAKMGWGVRALQTIPQGTFICEYVGELISDAEADVREDDSYLFDLDNKDGEVYCIDARYYGNISRFINHLCDPNIIPVRVFMLHQDLRFPRIAFFSSRDIRTGEELGFDYGDRFWDIKSKYFTCQCGSEKCKHSAEAIALEQSRLARLDPHPELLPDLSSLPPINT
Kd [1]: > 66 µM

B3: G9a-GLP ANK-SET heterodimer (complex)
chain 1: DAPGRADTSQPSARMRGHGEPRRPPCDPLADTIDSSGPSLTLPNGGCLSAVGLPPGPGREALEKALVIQESERRKKLRFHPRQLYLSVKQGELQKVILMLLDNLDPNFQSDQQSKRTPLHAAAQKGSVEICHVLLQAGANINAVDKQQRTPLMEAVVNNHLEVARYMVQLGGCVYSKEEDGSTCLHHAAKIGNLEMVSLLLSTGQVDVNAQDSGGWTPIIWAAEHKHIDVIRMLLTRGADVTLTDNEENICLHWASFTGSAAIAEVLLNAQCDLHAVNYHGDTPLHIAARESYHDCVLLFLSRGANPELRNKEGDTAWDLTPERSDVWFALQLNRKLRLGVGNRAVRTEKIICRDVARGYENVPIPCVNGVDGEPCPEDYKYISENCETSTMNIDRNITHLQHCTCVDDCSSSNCLCGQLSIRCWYDKDGRLLQEFNKIEPPLIFECNQACSCWRSCKNRVVQSGIKVRLQLYRTAKMGWGVRALQTIPQGTFICEYVGELISDAEADVREDDSYLFDLDNKDGEVYCIDARYYGNISRFINHLCDPNIIPVRVFMLHQDLRFPRIAFFSSRDIRTGEELGFDYGDRFWDIKSKYFTCQCGSEKCKHSAEAIALEQSRLARLDPHPELLPDLSSLPPINT
chain 2: QEKSLAAEGRADTTTGSIAGAPEDERSQSTAPQAPECFDPAGPAGLVRPTSGLSQGPGKETLESALIALDSEKPKKLRFHPKQLYFSARQGELQKVLLMLVDGIDPNFKMEHQSKRSPLHAAAEAGHVDICHMLVQAGANIDTCSEDQRTPLMEAAENNHLDAVKYLIKAGAQVDPKDAEGSTCLHLAAKKGHYDVVQYLLSNGQMDVNCQDDGGWTPMIWATEYKHVELVKLLLSKGSDINIRDNEENICLHWAAFSGCVDIAEILLAAKCDLHAVNIHGDSPLHIAARENRYDCVVLFLSRDSDVTLKNKEGETPLQCASLSSQVWSALQMSKALRDSAPDKPVAVEKTVSRDIARGYERIPIPCVNAVDSELCPTNYKYVSQNCVTSPMNIDRNITHLQYCVCVDDCSSSTCMCGQLSMRCWYDKDGRLLPEFNMAEPPLIFECNHACSCWRNCRNRVVQNGLRARLQLYRTQDMGWGVRSLQDIPLGTFVCEYVGELISDSEADVREEDSYLFDLDNKDGEVYCIDARFYGNVSRFINHHCEPNLVPVRVFMSHQDLRFPRIAFFSTRLIQAGEQLGFDYGERFWDVKGKLFSCRCGSSKCRHSSAALAQRQASAAQEPQENGLPDTSSAAAADPL
Kd [2]: 2.26 µM | Kd [3]: 4.76 µM

Second part, the binder after the results:

Kd [2]: 14.8 µM | Kd [3]: 18.4 µM | Kd [4]: > 100 µM
B2: G9a ANK-SET homodimer (complex)
chain: B3 chain 1

Kd [5]: > 70 µM
B4: G9aS-GLP (protein)
chain 1: AHDAPGRADTSQPSARMRGHGEPRRPPCDPLADTIDSSGPSLTLPNGGCLSAVGLPPGPGREALEKALVIQESERRKKLRFHPRQLYLSVKQGELQKVILMLLDNLDPNFQSDQQSKRTPLHAAAQKGSVEICHVLLQAGANINAVDKQQRTPLMEAVVNNHLEVARYMVQLGGCVYSKEEDGSTCLHHAAKIGNLEMVSLLLSTGQVDVNAQDSGGWTPIIWAAEHKHIDVIRMLLTRGADVTLTDNEENICLHWASFTGSAAIAEVLLNAQCDLHAVNYHGDTPLHIAARESYHDCVLLFLSRGANPELRNKEGDTAWDLTPERSDVWFALQLNRKLRLGVGNRAVRTEKIICRDVARGYENVPIPCVNGVDGEPCPEDYKYISENCETSTMNIDRNITHLQHCTCVDDCSSSNCLCGQLSIRCWYDKDGRLLQEFNKIEPPLIFECNQACSCWRSCKNRVVQSGIKVRLQLYRTAKMGWGVRALQTIPQGTFICEVVGELISDAEADVREDDSYLFDLDNKDGEVYCIDARYYGNISRFINHLCDPNIIPVRVFMLHQDLRFPRIAFFSSRDIRTGEELGFDFGDRFWDIKSKYFTCQCGSEKCKHSAEAIALEQSRLARLDPHPELLPDLSSLPPINT
chain 2: PGQEKSLAAEGRADTTTGSIAGAPEDERSQSTAPQAPECFDPAGPAGLVRPTSGLSQGPGKETLESALIALDSEKPKKLRFHPKQLYFSARQGELQKVLLMLVDGIDPNFKMEHQSKRSPLHAAAEAGHVDICHMLVQAGANIDTCSEDQRTPLMEAAENNHLDAVKYLIKAGAQVDPKDAEGSTCLHLAAKKGHYDVVQYLLSNGQMDVNCQDDGGWTPMIWATEYKHVELVKLLLSKGSDINIRDNEENICLHWAAFSGCVDIAEILLAAKCDLHAVNIHGDSPLHIAARENRYDCVVLFLSRDSDVTLKNKEGETPLQCASLSSQVWSALQMSKALRDSAPDKPVAVEKTVSRDIARGYERIPIPCVNAVDSELCPTNYKYVSQNCVTSPMNIDRNITHLQYCVCVDDCSSSTCMCGQLSMRCWYDKDGRLLPEFNMAEPPLIFECNHACSCWRNCRNRVVQNGLRARLQLYRTQDMGWGVRSLQDIPLGTFVCEYVGELISDSEADVREEDSYLFDLDNKDGEVYCIDARFYGNVSRFINHHCEPNLVPVRVFMSHQDLRFPRIAFFSTRLIQAGEQLGFDYGERFWDVKGKLFSCRCGSSKCRHSSAALAQRQASAAQEPQENGLPDTSSAAAADPL

Kd [2]: 5 µM
B5: GLP ANK-SET homodimer (complex)
chain: B3 chain 2
